Assay results: patent US20110129459A1 (Chugai, published 2011)
Changes are numbered by the printed parent chain. Read-outs that look alike come from different tables or passages of the source. Blank lines part the entries; values can stand above or below the binder they belong to.

How the values were obtained:
[1] = molecular target: T1, rhNR10 (recombinant human NR10) (human, UniProt Q8NI17 20-519, limits assumed); assay: SPR, Biacore T100; antibody captured on Protein A, rhNR10 as analyte
T1 construct: also called IL-31 receptor; IL31RA
T1 sequence: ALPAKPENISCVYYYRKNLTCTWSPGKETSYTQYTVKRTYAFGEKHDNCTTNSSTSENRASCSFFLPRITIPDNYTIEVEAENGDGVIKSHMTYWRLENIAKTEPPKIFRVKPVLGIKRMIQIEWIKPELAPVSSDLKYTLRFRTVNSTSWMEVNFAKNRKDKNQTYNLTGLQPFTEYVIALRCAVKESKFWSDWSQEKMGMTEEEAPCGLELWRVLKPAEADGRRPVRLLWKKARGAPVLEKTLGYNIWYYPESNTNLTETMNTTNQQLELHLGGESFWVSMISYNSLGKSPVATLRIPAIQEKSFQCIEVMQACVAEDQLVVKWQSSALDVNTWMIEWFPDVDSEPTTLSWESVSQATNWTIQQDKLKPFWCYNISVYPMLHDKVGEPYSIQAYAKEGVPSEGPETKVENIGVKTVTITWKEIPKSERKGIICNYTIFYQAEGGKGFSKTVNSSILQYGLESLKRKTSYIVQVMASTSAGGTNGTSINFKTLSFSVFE
Protocol: (§1) Kinetic analysis of the antigen-antibody reaction was carried out using Biacore T100 (GE Healthcare Biosciences). The antigen-antibody interaction was measured by immobilizing rec-Protein A (hereinafter Protein A) (ZYMED) onto a sensor chip, capturing an antibody on the immobilized Protein A, and then reacting the antigen as an analyte. Various concentrations of rhNR10 were used as the antigen. The kinetic parameters, association rate constant kₐ (1/Ms) and dissociation rate constant kd (1/s), were calculated from the sensorgrams obtained by the measurement. Then, KD (M) was determined based on the rate constants. Each parameter was determined using Biacore T100 Evaluation Software version 1.1 (GE Healthcare Biosciences).
(§2) The running buffer used was HBS-EP+. Each antibody was prepared at 0.25 μg/ml, or prepared so that about 100 RU would bind to Protein A. rhNR10 used as an analyte was prepared at 0, 38.5, 77.0, and 154 nM, or at 0, 19.25, and 77.01 nM using HBS-EP+. In the measurement, first, the antibody solution was captured on Protein A, and an analyte solution was reacted at a flow rate of 20 μL/min for three minutes. Then, the solution was switched to HBS-EP+, and the dissociation phase was measured for five minutes. After measurement of the dissociation phase, the sensor chip was regenerated by washing with 10 mM glycine-HCl (pH 1.5). The obtained sensorgrams were kinetically analyzed using the Biacore-specific data analysis software, Biacore T100 Evaluation Software Version 1.1.

[2] = molecular target: T1, rhNR10 (recombinant human NR10); assay: as above; remark: listed apart in the source
Protocol: as §1, §2

[3] = molecular target: T2, cytoplasmic domain-lacking human NR10 on CHO cells (hNR10-expressing CHO cells) (human, UniProt Q8NI17 20-553); assay: FMAT competition on hNR10-expressing CHO cells: antibody titrated against FMAT Blue-labeled hIL-31; FL1 = cell-bound labeled hIL-31; mean±S.D. (n=3)
T2 construct: also called NR10-expressing cells
T2 sequence: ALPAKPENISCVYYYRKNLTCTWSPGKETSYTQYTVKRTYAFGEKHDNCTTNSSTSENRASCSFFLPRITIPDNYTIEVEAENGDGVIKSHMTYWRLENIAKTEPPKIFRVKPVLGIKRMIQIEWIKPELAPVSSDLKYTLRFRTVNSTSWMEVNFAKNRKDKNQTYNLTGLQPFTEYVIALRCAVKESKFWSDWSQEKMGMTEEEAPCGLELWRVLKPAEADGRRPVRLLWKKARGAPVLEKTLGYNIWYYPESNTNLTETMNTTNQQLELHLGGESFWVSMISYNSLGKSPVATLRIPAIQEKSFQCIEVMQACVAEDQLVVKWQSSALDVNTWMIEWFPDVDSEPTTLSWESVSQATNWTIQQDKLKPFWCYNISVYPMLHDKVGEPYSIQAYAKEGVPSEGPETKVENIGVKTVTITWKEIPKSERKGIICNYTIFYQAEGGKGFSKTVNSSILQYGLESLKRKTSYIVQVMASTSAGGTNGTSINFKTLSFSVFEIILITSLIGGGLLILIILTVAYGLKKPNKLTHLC
Protocol: Antibodies were assessed for the activity of inhibiting the IL-31/NR10 binding by using hNR10-expressing CHO cells as described below. The chimeric NS22 antibody and NS22_H0L0 (H chain, H0-SKSC/SEQ ID NO: 54; L chain, L0/SEQ ID NO: 56) were diluted at an appropriate concentration using Assay buffer (10 mM HEPES, 140 mM NaCl, 2.5 mM CaCl₂, 3 mM MgCl₂, 2% FBS, 0.01% NaN₃, pH7.4), and further eight serial dilutions were prepared at a common dilution ration of 2. The dilutions were added at 40 μl/well to plates (96-Well FMAT Plates, Applied Biosystems). Then, FMAT Blue-labeled hIL-31 was diluted 400 times with Assay buffer, and added at 20 μl/well. Finally, a cell suspension adjusted to 2.5×10⁵ cells/ml using Assay buffer was added at 40 μl/well (final 1×10⁴ cells/well). Two hours after addition of cells, the fluorescence (FL1) was measured using the 8200 Cellular Detection System (Applied Biosystems).
Each variant was tested for the activity of inhibiting the hIL-31/hNR10 binding by using FMAT. The test was carried out according to the method as described in Example 4.

Kd [1]: 1.5 nM
koff [1]: 0.0004 s⁻¹
kon [1]: 260000 M⁻¹ s⁻¹
B1: H0La130 (H0-SKSC / La130) (antibody, V domains shown)
VH: QVQLVQSGAEVKKPGASVKVSCKASGYTFTGYIMNWVRQAPGQGLEWMGLINPYNGGTSYNQKFKGRVTITADESTSTAYMELSSLRSEDTAVYYCARDGYDDGPYTMDYWGQGTLVTVSS
VL: DIQMTQSPSSLSASVGDRVTITCRTSENIYRFVAWYQQKPGKAPKLLIYNAKTLAKGVPSRFSGSGSGTDFTLTISSLQPEDFATYYCQHHYESPLTFGGGTKVEIKR

Kd [2]: 0.83 nM
koff [2]: 0.00057 s⁻¹
kon [2]: 680000 M⁻¹ s⁻¹
B2: H30L17 (H30-M58 / L17) (antibody, V domains shown)
VH: B1 VH with S59D, Q62P, K63Q, K65Q, G66D, M108L, D109E, Y110T
VL: B1 VL with R24Q, T25A, N28D, R31S, K52Q, L54E, K56Q, E93D

binding result [3]: binds
B3: Hp1 variant of H0L0 (antibody, V domains shown)
VH: B1 VH with K65Q
VL: DIQMTQSPSSLSASVGDRVTITCRTSENIYSFLAWYQQKPGKAPKLLIYNAKTLAKGVPSRFSGSGSGTDFTLTISSLQPEDFATYYCQHHYESPLTFGGGTKVEIK

Kd [2]: 0.52 nM
koff [2]: 0.00033 s⁻¹
kon [2]: 640000 M⁻¹ s⁻¹
B4: H28L17 (H28-M58 / L17) (antibody, V domains shown)
VH: B1 VH with I33V, M34L, S59D, Q62P, K63Q, K65Q, G66D, M108L, D109E, Y110T
VL: B1 VL with R24Q, T25A, N28D, R31S, K52Q, L54E, K56Q, E93D

binding result [3]: binds
B5: Lp5 variant of H0L0 (antibody, V domains shown)
VH: B1 VH
VL: B1 VL with R31S, V33L, K56Q
notes: copies: 2 + 2

Kd [1]: 3 nM
koff [1]: 0.00096 s⁻¹
kon [1]: 320000 M⁻¹ s⁻¹
B6: Ha219L0 (Ha219-SKSC / L0) (antibody, V domains shown)
VH: B1 VH with Q62P
VL: B1 VL with R31S, V33L

Kd [2]: 3.5 nM
koff [2]: 0.0013 s⁻¹
kon [2]: 360000 M⁻¹ s⁻¹
B7: H97L50 (H97-M58 / L50) (antibody, V domains shown)
VH: B1 VH with K63Q, K65Q, G66D, M108L, D109E, Y110T
VL: B1 VL with R24Q, T25A, N28D, R31S, V33L, K52Q, L54E, K56Q, E93D

Kd [1]: 2.1 nM
koff [1]: 0.00046 s⁻¹
kon [1]: 220000 M⁻¹ s⁻¹
B8: H0La303 (H0-SKSC / La303) (antibody, V domains shown)
VH: B1 VH
VL: B1 VL with R31S, V33L, E93D
notes: also called Ls303

Kd [2]: 0.77 nM
koff [2]: 0.00055 s⁻¹
kon [2]: 710000 M⁻¹ s⁻¹
B9: H57L17 (H57-M58 / L17) (antibody, V domains shown)
VH: B1 VH with S59D, Q62P, K63Q, K65Q, M108L, D109E, Y110T
VL: B1 VL with R24Q, T25A, N28D, R31S, K52Q, L54E, K56Q, E93D

Kd [1]: 3.7 nM
koff [1]: 0.00052 s⁻¹
kon [1]: 140000 M⁻¹ s⁻¹
B10: H0La326 (H0-SKSC / La326) (antibody, name in Kabat numbering, V domains shown)
VH: B1 VH
VL: B1 VL with R31S, V33L, T97F

Kd [1]: 1.8 nM
koff [1]: 0.00044 s⁻¹
kon [1]: 250000 M⁻¹ s⁻¹
B11: H0La134 (H0-SKSC / La134) (antibody, V domains shown)
VH: B1 VH
VL: B1 VL with V33L

Kd [2]: 0.65 nM
koff [2]: 0.00037 s⁻¹
kon [2]: 570000 M⁻¹ s⁻¹
B12: H42L17 (H42-M58 / L17) (antibody, V domains shown)
VH: QVQLVQSGAEVKKPGASVKVSCKASGYTFTGYVLNWVRQAPGQGLEWMGLINPYNGGTDYNPQFQDRVTITADKSTSTAYMELSSLRSEDTAVYYCARDGYDDGPYTLETWGQGTLVTVSS
VL: B1 VL with R24Q, T25A, N28D, R31S, K52Q, L54E, K56Q, E93D

Kd [1]: 1.5 nM
koff [1]: 0.00031 s⁻¹
kon [1]: 200000 M⁻¹ s⁻¹
B13: Ha101L0 (Ha101-SKSC / L0) (antibody, V domains shown)
VH: B1 VH with I33V
VL: B1 VL with R31S, V33L

Kd [1]: 2.1 nM
koff [1]: 0.00056 s⁻¹
kon [1]: 260000 M⁻¹ s⁻¹
B14: Ha111L0 (Ha111-SKSC / L0) (antibody, V domains shown)
VH: B1 VH with M34L
VL: B1 VL with R31S, V33L

binding result [3]: binds
B15: Lp6 variant of H0L0 (antibody, V domains shown)
VH: B1 VH
VL: B1 VL with R31S, V33L, K56D
notes: copies: 2 + 2

Kd [2]: 3.3 nM
koff [2]: 0.0012 s⁻¹
kon [2]: 370000 M⁻¹ s⁻¹
B16: H71L17 (H71-M58 / L17) (antibody, V domains shown)
VH: B12 VH with V33A, L34M, D66G, K74E
VL: B1 VL with R24Q, T25A, N28D, R31S, K52Q, L54E, K56Q, E93D

Kd [1]: 1.3 nM
koff [1]: 0.00048 s⁻¹
kon [1]: 370000 M⁻¹ s⁻¹
B17: Ha204L0 (Ha204-SKSC / L0) (antibody, V domains shown)
VH: B1 VH with S59D
VL: B1 VL with R31S, V33L

Kd [1]: 2.4 nM
koff [1]: 0.00053 s⁻¹
kon [1]: 220000 M⁻¹ s⁻¹
B18: Ha103L0 (Ha103-SKSC / L0) (antibody, V domains shown)
VH: B1 VH with M34I
VL: B1 VL with R31S, V33L

Kd [2]: 1.1 nM
koff [2]: 0.0007 s⁻¹
kon [2]: 610000 M⁻¹ s⁻¹
B19: H78L17 (H78-M58 / L17) (antibody, V domains shown)
VH: B12 VH with V33I, L34M, D66G
VL: B1 VL with R24Q, T25A, N28D, R31S, K52Q, L54E, K56Q, E93D

Kd [1]: 2.9 nM
koff [1]: 0.00052 s⁻¹
kon [1]: 180000 M⁻¹ s⁻¹
B20: H0La328 (H0-SKSC / La328) (antibody, V domains shown)
VH: B1 VH
VL: B1 VL with R31S, V33L, S94D

Kd [2]: 3.6 nM
koff [2]: 0.0012 s⁻¹
kon [2]: 340000 M⁻¹ s⁻¹
B21: H34L17 (H34-M58 / L17) (antibody, V domains shown)
VH: B12 VH with V33A, L34M, K74E
VL: B1 VL with R24Q, T25A, N28D, R31S, K52Q, L54E, K56Q, E93D

Kd [2]: 4.1 nM
koff [2]: 0.0013 s⁻¹
kon [2]: 310000 M⁻¹ s⁻¹
B22: H92L17 (H92-M58 / L17) (antibody, V domains shown)
VH: B12 VH with V33A, L34M, D66G
VL: B1 VL with R24Q, T25A, N28D, R31S, K52Q, L54E, K56Q, E93D

Kd [2]: 4.6 nM
koff [2]: 0.0013 s⁻¹
kon [2]: 290000 M⁻¹ s⁻¹
B23: H46L17 (H46-M58 / L17) (antibody, V domains shown)
VH: B12 VH with V33A, L34M
VL: B1 VL with R24Q, T25A, N28D, R31S, K52Q, L54E, K56Q, E93D

Kd [2]: 4.6 nM
koff [2]: 0.0013 s⁻¹
kon [2]: 290000 M⁻¹ s⁻¹
B24: H98L50 (H98-M58 / L50) (antibody, V domains shown)
VH: B12 VH with V33I, L34M, D59S, P62Q
VL: B1 VL with R24Q, T25A, N28D, R31S, V33L, K52Q, L54E, K56Q, E93D
